In the supplement of paper PMC10065799, “High-throughput profiling of sequence recognition by tyrosine kinases and SH2 domains using bacterial peptide display” (eLife, 2023):

tested on: AncSZ; assay: phosphorylation enrichment, bacterial display (enrichment ratio); higher = better substrate or ligand; peptides without Tyr show the background
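Also: 11-residue human phosphosite peptides and single-mutation variants displayed on the E. coli surface, counted by deep sequencing, each peptide's frequency after selection divided by its frequency in the unselected input library; frequency after pTyr selection over input frequency; kinase dosed for 20-30% of maximal phosphorylation in three min.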

| Sequence | phosphorylation enrichment |
| --- | --- |
| RLGDLYEEEMR [VIM_Y150] | 0.72 |
| VFPIDYFFPPQ [AR_Y552_L548F_YF] | 4.04 |
| KRLAVYQAGAR [APOE_Y180] | 0.495 |
| SADIAYNYRHG [PAH_Y166_F161S] | 0.488 |
| PPAPRYHHLAV [LZTR1_Y119_S122L] | 0.868 |
| GIMEEYQLPFF [BMPR1A_Y453_V450M_YF] | 4.83 |
| IGCHAYGDQFR [IDH1_Y135_R132C_YF] | 0.933 |
| TGDFGYRTPGF [TNS2_Y668_A670T_YF] | 0.523 |
| DLHGIYQKLVI | 0.886 |
| VHVEVYDRPSP | 1.39 |
| DMLYQYLKQIE [RPAP3_Y569] | 1.23 |
| AKIDGYITSFR | 0.795 |
| RTTIHYNYMCN [TP53_Y234_C229R] | 1.81 |
| YKTPIYPYLLP [PLD2_Y578_T577I] | 1.14 |
| AKRKGYDMQVD [NEB_Y2770_R2773Q] | 0.473 |
| AMGAVYQAAAL [HYOU1_Y421] | 0.686 |
| FQQLFYLLQTN [IQGAP2_Y890_YF] | 1.51 |

| Sequence | phosphorylation enrichment |
| --- | --- |
| ETKEDYEKILV [ANXA1_Y335_G333E] | 1.09 |
| KTVQDYLEKFF [MMP8_Y36_YF] | 1.14 |
| LLGFLYFFVCS [SLC34A2_Y109] | 1.66 |
| FRDMDYRSFPR [RBM10_Y41_YF] | 0.694 |
| SGIYQYSIAKF [FOXL2_Y83_I84S] | 1.83 |
| LLNPSYNLPLD [TOM1L1_Y109_R108S] | 1.22 |
| RLAKTYKTTLE [ALB_Y377_E378K] | 0.564 |
| RNPLRYTSILT [OR51B6_Y130_S126N] | 0.689 |
| IRQDHYESLKE [MTR_Y921] | 0.755 |
| TTPGPHRSIFF [MPG_Y71_Y71H_YF] | 0.502 |
| PSARTYCYKQE [KLHDC9_Y175] | 1.14 |
| LLLLFCVVRYC [MPZ_Y177_Y177C] | 3.01 |
| SIRFNYLLDVL [FGFR4_Y237_YF] | 0.94 |
| EIIPFYGMSTF [FNDC3B_Y175_YF] | 0.955 |
| WFPSTYVEEDE [VAV3_Y842] | 1.43 |
| ANNEYYFQVCA | 2.03 |

biological target: EPHB1 (UniProt P54762); assay: as above
Sequence (P54762 whole entry, looked up): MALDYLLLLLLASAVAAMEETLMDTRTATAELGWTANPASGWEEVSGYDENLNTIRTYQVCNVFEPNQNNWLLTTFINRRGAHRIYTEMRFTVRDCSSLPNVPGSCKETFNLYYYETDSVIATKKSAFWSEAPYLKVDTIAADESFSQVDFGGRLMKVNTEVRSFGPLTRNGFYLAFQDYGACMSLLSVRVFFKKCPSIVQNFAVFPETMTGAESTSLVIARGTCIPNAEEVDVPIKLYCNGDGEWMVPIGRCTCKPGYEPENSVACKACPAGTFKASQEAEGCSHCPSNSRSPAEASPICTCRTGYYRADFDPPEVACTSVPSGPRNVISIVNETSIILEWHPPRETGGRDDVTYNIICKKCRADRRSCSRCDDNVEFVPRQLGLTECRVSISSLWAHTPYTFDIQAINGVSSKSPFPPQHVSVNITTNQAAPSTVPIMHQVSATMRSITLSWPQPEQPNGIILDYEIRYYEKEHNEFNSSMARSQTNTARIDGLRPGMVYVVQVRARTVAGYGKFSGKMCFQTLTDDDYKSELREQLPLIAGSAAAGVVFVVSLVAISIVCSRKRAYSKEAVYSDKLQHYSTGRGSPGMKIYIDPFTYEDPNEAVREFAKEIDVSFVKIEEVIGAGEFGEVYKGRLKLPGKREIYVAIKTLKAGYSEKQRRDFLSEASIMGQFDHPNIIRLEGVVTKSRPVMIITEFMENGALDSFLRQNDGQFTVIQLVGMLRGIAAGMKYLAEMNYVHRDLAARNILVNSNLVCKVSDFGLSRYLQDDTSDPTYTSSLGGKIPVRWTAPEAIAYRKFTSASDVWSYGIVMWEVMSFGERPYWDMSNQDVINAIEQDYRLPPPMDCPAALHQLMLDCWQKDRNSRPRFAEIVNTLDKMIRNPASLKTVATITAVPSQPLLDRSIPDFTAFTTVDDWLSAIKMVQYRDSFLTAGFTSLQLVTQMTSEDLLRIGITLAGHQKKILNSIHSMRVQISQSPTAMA

| Sequence | phosphorylation enrichment |
| --- | --- |
| RLGDLYEEEMR [VIM_Y150] | 0.615 |
| VFPIDYFFPPQ [AR_Y552_L548F_YF] | 1.19 |
| KRLAVYQAGAR [APOE_Y180] | 0.316 |
| SADIAYNYRHG [PAH_Y166_F161S] | 0.333 |
| PPAPRYHHLAV [LZTR1_Y119_S122L] | 0.606 |
| GIMEEYQLPFF [BMPR1A_Y453_V450M_YF] | 0.648 |
| IGCHAYGDQFR [IDH1_Y135_R132C_YF] | 0.516 |
| TGDFGYRTPGF [TNS2_Y668_A670T_YF] | 0.48 |
| DLHGIYQKLVI | 4.32 |
| VHVEVYDRPSP | 0.791 |
| DMLYQYLKQIE [RPAP3_Y569] | 3.36 |
| AKIDGYITSFR | 0.427 |
| RTTIHYNYMCN [TP53_Y234_C229R] | 1.48 |
| YKTPIYPYLLP [PLD2_Y578_T577I] | 0.816 |
| AKRKGYDMQVD [NEB_Y2770_R2773Q] | 0.257 |
| AMGAVYQAAAL [HYOU1_Y421] | 0.534 |
| FQQLFYLLQTN [IQGAP2_Y890_YF] | 0.884 |

| Sequence | phosphorylation enrichment |
| --- | --- |
| ETKEDYEKILV [ANXA1_Y335_G333E] | 0.616 |
| KTVQDYLEKFF [MMP8_Y36_YF] | 0.504 |
| LLGFLYFFVCS [SLC34A2_Y109] | 1.17 |
| FRDMDYRSFPR [RBM10_Y41_YF] | 0.435 |
| SGIYQYSIAKF [FOXL2_Y83_I84S] | 4.84 |
| LLNPSYNLPLD [TOM1L1_Y109_R108S] | 1.26 |
| RLAKTYKTTLE [ALB_Y377_E378K] | 0.324 |
| RNPLRYTSILT [OR51B6_Y130_S126N] | 0.478 |
| IRQDHYESLKE [MTR_Y921] | 0.529 |
| TTPGPHRSIFF [MPG_Y71_Y71H_YF] | 0.41 |
| PSARTYCYKQE [KLHDC9_Y175] | 0.647 |
| LLLLFCVVRYC [MPZ_Y177_Y177C] | 2.47 |
| SIRFNYLLDVL [FGFR4_Y237_YF] | 0.539 |
| EIIPFYGMSTF [FNDC3B_Y175_YF] | 0.532 |
| WFPSTYVEEDE [VAV3_Y842] | 0.789 |
| ANNEYYFQVCA | 0.957 |

biological target: EPHB2 (UniProt P29323); assay: as above
Sequence (P29323 whole entry, looked up): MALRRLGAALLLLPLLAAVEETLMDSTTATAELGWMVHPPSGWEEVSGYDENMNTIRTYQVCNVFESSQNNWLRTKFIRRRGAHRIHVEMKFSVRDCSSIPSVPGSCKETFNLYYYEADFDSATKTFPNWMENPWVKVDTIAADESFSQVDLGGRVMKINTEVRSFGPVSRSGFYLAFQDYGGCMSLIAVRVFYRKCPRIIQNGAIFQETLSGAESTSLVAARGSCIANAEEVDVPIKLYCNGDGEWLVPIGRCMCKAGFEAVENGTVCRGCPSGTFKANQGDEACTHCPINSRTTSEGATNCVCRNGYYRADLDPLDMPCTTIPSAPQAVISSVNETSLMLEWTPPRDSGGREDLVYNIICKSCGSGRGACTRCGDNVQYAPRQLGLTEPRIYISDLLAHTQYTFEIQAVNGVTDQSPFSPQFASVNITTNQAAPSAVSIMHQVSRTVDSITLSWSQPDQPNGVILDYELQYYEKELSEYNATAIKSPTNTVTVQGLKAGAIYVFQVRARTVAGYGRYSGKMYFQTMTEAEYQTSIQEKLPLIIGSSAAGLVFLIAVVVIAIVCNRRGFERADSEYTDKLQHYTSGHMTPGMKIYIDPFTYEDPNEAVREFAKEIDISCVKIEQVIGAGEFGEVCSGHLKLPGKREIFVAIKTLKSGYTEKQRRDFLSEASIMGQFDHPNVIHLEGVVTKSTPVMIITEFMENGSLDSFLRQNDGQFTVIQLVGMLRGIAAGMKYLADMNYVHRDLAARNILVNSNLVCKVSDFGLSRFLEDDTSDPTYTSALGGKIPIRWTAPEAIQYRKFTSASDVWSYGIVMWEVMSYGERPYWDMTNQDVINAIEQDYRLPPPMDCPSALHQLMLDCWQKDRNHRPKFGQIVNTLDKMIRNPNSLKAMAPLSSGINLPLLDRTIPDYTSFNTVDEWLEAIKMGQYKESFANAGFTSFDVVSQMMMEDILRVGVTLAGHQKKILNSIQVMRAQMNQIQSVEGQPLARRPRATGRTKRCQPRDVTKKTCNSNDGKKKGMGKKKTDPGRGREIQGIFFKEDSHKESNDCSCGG

| Sequence | phosphorylation enrichment |
| --- | --- |
| RLGDLYEEEMR [VIM_Y150] | 0.691 |
| VFPIDYFFPPQ [AR_Y552_L548F_YF] | 1.53 |
| KRLAVYQAGAR [APOE_Y180] | 0.399 |
| SADIAYNYRHG [PAH_Y166_F161S] | 0.378 |
| PPAPRYHHLAV [LZTR1_Y119_S122L] | 0.514 |
| GIMEEYQLPFF [BMPR1A_Y453_V450M_YF] | 0.914 |
| IGCHAYGDQFR [IDH1_Y135_R132C_YF] | 0.532 |
| TGDFGYRTPGF [TNS2_Y668_A670T_YF] | 0.419 |
| DLHGIYQKLVI | 3.01 |
| VHVEVYDRPSP | 0.668 |
| DMLYQYLKQIE [RPAP3_Y569] | 1.96 |
| AKIDGYITSFR | 0.411 |
| RTTIHYNYMCN [TP53_Y234_C229R] | 1.13 |
| YKTPIYPYLLP [PLD2_Y578_T577I] | 0.744 |
| AKRKGYDMQVD [NEB_Y2770_R2773Q] | 0.366 |
| AMGAVYQAAAL [HYOU1_Y421] | 0.512 |
| FQQLFYLLQTN [IQGAP2_Y890_YF] | 0.796 |

| Sequence | phosphorylation enrichment |
| --- | --- |
| ETKEDYEKILV [ANXA1_Y335_G333E] | 0.598 |
| KTVQDYLEKFF [MMP8_Y36_YF] | 0.602 |
| LLGFLYFFVCS [SLC34A2_Y109] | 1.76 |
| FRDMDYRSFPR [RBM10_Y41_YF] | 0.492 |
| SGIYQYSIAKF [FOXL2_Y83_I84S] | 2.75 |
| LLNPSYNLPLD [TOM1L1_Y109_R108S] | 0.711 |
| RLAKTYKTTLE [ALB_Y377_E378K] | 0.509 |
| RNPLRYTSILT [OR51B6_Y130_S126N] | 0.482 |
| IRQDHYESLKE [MTR_Y921] | 0.482 |
| TTPGPHRSIFF [MPG_Y71_Y71H_YF] | 0.386 |
| PSARTYCYKQE [KLHDC9_Y175] | 0.721 |
| LLLLFCVVRYC [MPZ_Y177_Y177C] | 2.48 |
| SIRFNYLLDVL [FGFR4_Y237_YF] | 0.518 |
| EIIPFYGMSTF [FNDC3B_Y175_YF] | 0.667 |
| WFPSTYVEEDE [VAV3_Y842] | 0.656 |
| ANNEYYFQVCA | 0.768 |

biological target: FGFR1 (UniProt P11362); assay: as above
Sequence (P11362 whole entry, looked up): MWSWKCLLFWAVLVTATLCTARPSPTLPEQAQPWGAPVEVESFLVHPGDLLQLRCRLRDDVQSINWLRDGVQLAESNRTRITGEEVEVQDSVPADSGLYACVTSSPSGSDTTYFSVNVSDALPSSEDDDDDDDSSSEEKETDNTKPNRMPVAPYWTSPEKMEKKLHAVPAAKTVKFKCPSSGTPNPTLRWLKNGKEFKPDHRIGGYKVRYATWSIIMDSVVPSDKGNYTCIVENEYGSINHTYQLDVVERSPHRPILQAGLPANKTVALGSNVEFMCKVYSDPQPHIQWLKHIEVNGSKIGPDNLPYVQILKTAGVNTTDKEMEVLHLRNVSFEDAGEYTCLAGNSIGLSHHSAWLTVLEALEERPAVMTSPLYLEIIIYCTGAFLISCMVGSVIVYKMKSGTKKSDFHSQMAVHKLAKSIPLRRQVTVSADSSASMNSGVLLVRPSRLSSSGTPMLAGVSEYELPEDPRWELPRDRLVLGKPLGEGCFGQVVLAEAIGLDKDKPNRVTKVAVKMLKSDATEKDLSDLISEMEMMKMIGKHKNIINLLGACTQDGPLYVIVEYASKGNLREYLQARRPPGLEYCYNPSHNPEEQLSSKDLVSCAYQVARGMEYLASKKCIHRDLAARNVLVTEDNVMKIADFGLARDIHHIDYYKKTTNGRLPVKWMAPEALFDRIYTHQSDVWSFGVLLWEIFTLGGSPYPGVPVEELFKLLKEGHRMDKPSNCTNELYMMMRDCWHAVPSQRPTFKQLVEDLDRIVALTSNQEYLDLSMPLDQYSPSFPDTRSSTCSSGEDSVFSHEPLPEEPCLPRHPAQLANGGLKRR

| Sequence | phosphorylation enrichment |
| --- | --- |
| RLGDLYEEEMR [VIM_Y150] | 0.48 |
| VFPIDYFFPPQ [AR_Y552_L548F_YF] | 12.6 |
| KRLAVYQAGAR [APOE_Y180] | 0.403 |
| SADIAYNYRHG [PAH_Y166_F161S] | 0.362 |
| PPAPRYHHLAV [LZTR1_Y119_S122L] | 0.377 |
| GIMEEYQLPFF [BMPR1A_Y453_V450M_YF] | 1.7 |
| IGCHAYGDQFR [IDH1_Y135_R132C_YF] | 0.529 |
| TGDFGYRTPGF [TNS2_Y668_A670T_YF] | 0.438 |
| DLHGIYQKLVI | 1.65 |
| VHVEVYDRPSP | 0.438 |
| DMLYQYLKQIE [RPAP3_Y569] | 3.07 |
| AKIDGYITSFR | 0.513 |
| RTTIHYNYMCN [TP53_Y234_C229R] | 0.892 |
| YKTPIYPYLLP [PLD2_Y578_T577I] | 2.43 |
| AKRKGYDMQVD [NEB_Y2770_R2773Q] | 0.311 |
| AMGAVYQAAAL [HYOU1_Y421] | 0.58 |
| FQQLFYLLQTN [IQGAP2_Y890_YF] | 0.514 |

| Sequence | phosphorylation enrichment |
| --- | --- |
| ETKEDYEKILV [ANXA1_Y335_G333E] | 0.509 |
| KTVQDYLEKFF [MMP8_Y36_YF] | 0.643 |
| LLGFLYFFVCS [SLC34A2_Y109] | 1.03 |
| FRDMDYRSFPR [RBM10_Y41_YF] | 0.473 |
| SGIYQYSIAKF [FOXL2_Y83_I84S] | 1.71 |
| LLNPSYNLPLD [TOM1L1_Y109_R108S] | 0.595 |
| RLAKTYKTTLE [ALB_Y377_E378K] | 0.513 |
| RNPLRYTSILT [OR51B6_Y130_S126N] | 0.582 |
| IRQDHYESLKE [MTR_Y921] | 0.45 |
| TTPGPHRSIFF [MPG_Y71_Y71H_YF] | 0.353 |
| PSARTYCYKQE [KLHDC9_Y175] | 0.454 |
| LLLLFCVVRYC [MPZ_Y177_Y177C] | 3.08 |
| SIRFNYLLDVL [FGFR4_Y237_YF] | 0.481 |
| EIIPFYGMSTF [FNDC3B_Y175_YF] | 0.461 |
| WFPSTYVEEDE [VAV3_Y842] | 0.636 |
| ANNEYYFQVCA | 8.62 |
